Read-outs that look alike come from different tables or passages of the source.
Assays:
[1] = target: Coh (lacking ELP linker and ddFLN4 domains), ITC construct (R. champanellensis); assay: ITC; 126 uM XMod-Doc injected (27 x 10 uL) into 16.1 uM Coh in the cell; 25 °C; TBS-Ca buffer (25 mM Tris, 72 mM NaCl, 1 mM CaCl2, pH 7.2)
[2] = target: Coh-ddFLN4-ELP-HIS-ybbr, AFM construct (R. champanellensis); assay: AFM single-molecule force spectroscopy (AFM-SMFS); Coh construct covalently on the cantilever tip by its C-terminal ybbR tag, XMod-Doc construct covalently on the cover glass by its N-terminal ybbR tag; 200 ms dwell; constant pulling speed 100, 400, 1600, 6400 nm/s (mutants at 400 nm/s); TBS-Ca buffer; k0 from Bell-Evans or Dudko-Hummer-Szabo fits
[3] = target: Coh-ddFLN4-ELP-HIS-ybbr, AFM construct (R. champanellensis); assay: as above; remark: listed apart in the source
[4] = target: Avi-Coh (E154C)-HIS labelled with maleimide-Cy3b, smFRET construct (R. champanellensis); assay: FRET or BRET; single-molecule FRET in solution on a confocal microscope; labelled Coh (Cy3b) and XMod-Doc (AF647) mixed 1:1 at 1 uM, 1 min, diluted to 200 pM; 50 mM Tris pH 8, 100 mM NaCl, 1 mM CaCl2, Trolox, 1% glucose

Substance: XMod-Doc protein (lacking ELP linker and ddFLN4 domains), ITC construct (domain or fragment)
- Kd [1]: 1 nM
- stoichiometry N [1]: 1

Substance: ybbr-ELP-ddFLN4-XMod-Doc-HIS (wild type), AFM construct (domain or fragment)
- rupture force, pathway 1 (XMod intact) [2]: 500 to 600 pN
- k0 (BE), pathway 1, high force rupture (XMod intact) [3]: 4.7e-08 s⁻¹
- k0 (BE), pathway 2, low force rupture after XMod unfold [3]: 0.000743 s⁻¹
- k0 (BE), pathway 3, low force rupture (XMod intact) [3]: 2.79e-05 s⁻¹
- k0 (DHS, υ = 0.5), pathway 1, high force rupture (XMod intact) [3]: 9.39e-05 s⁻¹
- k0 (DHS, υ = 0.5), pathway 2, low force rupture after XMod unfold [3]: 0.0152 s⁻¹
- k0 (DHS, υ = 0.5), pathway 3, low force rupture (XMod intact) [3]: 0.831 s⁻¹
- k0 (DHS, υ = 2/3), pathway 1, high force rupture (XMod intact) [3]: 0.000157 s⁻¹
- k0 (DHS, υ = 2/3), pathway 2, low force rupture after XMod unfold [3]: 0.101 s⁻¹
- k0 (DHS, υ = 2/3), pathway 3, low force rupture (XMod intact) [3]: 1.08 s⁻¹
- percentage of curves in pathway 3 (binding mode B), 400 nm/s [3]: 19%
- percentage of curves in pathway 3 (binding mode B), all pulling speeds [3]: 17 to 22%
- rupture force, pathway 1 (XMod intact) [3]: 500 pN
- rupture force, pathway 2 (after XMod unfolding) [3]: 200 pN
- rupture force, pathway 3 (XMod intact) [3]: 200 pN

Substance: ybbr-XMod-Doc (WT, S199AzF)-HIS labelled with DBCO-AF647, smFRET construct (domain or fragment)
- mean FRET efficiency, binding mode A [4]: 0.71
- mean FRET efficiency, binding mode B [4]: 0.34
